This note sets out measurements from patent US20100216191A1, “Method for Manufacturing a Modified Peptide” (PROCOMCURE BIOTECH GMBH, priority 2007, published 2010).

The target of test [1] is ClfB (clumping factor B of S. aureus, NCBI Protein GI 15925620) (Staphylococcus aureus), Q99R07. As to the kind of experiment: cell-based or functional assay.
Test [2] has as its target His-tagged recombinant ClfB protein (Staphylococcus aureus). As to the kind of experiment: pull-down competition on His-tagged ClfB beads, anti-GST Western blot, densitometry; competes with GST-tagged Frag2-CDS. (In general: Immunoblotting shows a protein as a band on a membrane.)

Chain of ClfB (clumping factor B of S. aureus, NCBI Protein GI 15925620) (Staphylococcus aureus), Q99R07 (Q99R07 45-841 limits assumed): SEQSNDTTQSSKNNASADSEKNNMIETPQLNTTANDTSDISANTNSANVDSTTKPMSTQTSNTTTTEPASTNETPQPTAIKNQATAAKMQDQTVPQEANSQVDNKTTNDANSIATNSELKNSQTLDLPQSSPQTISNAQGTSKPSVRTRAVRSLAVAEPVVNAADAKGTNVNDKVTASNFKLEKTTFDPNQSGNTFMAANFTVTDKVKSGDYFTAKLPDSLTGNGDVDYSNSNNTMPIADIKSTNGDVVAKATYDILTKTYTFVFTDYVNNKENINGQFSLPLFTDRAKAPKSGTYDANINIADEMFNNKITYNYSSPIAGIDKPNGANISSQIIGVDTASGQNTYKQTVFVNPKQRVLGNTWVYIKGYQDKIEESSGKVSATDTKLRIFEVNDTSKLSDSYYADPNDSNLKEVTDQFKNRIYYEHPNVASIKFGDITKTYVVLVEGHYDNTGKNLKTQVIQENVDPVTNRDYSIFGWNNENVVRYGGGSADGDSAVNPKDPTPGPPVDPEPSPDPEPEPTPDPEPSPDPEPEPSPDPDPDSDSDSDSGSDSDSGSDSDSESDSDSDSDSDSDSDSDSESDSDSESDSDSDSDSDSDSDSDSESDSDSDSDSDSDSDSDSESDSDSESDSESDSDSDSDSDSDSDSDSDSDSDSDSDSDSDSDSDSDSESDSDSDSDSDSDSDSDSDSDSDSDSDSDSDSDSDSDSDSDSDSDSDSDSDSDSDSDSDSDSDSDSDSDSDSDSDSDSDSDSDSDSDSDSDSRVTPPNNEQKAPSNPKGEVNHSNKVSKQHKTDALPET

B1: stronger binder (peptide SEQ ID NO 97) (peptide)
peptide: YSLGSSFGSGAGSSSLGRTSSSRAVVVK
modifications: not checked
For the molecule B1, the beta-galactosidase expression (X-Gal beta galactosidase overlay assay, Y2H) (% more than the original binder) in test [1] is > 50.

B2: IPEP-21SA (synthetic peptide of 21 amino acids) (peptide)
peptide: SYSLGSSFGSGAGSSSFSRTS
modifications: not checked
As to B2, the percent inhibition of the binding of GST-tagged keratin fragment to ClfB-protein at 1 µM peptide in test [2] came to 40%.

B3: more stronger binder (peptide SEQ ID NO 73) (peptide)
peptide: YSLGSSFGSGAGSSSSSRTSPSRAVVVK
modifications: not checked
For the molecule B3, the beta-galactosidase expression (X-Gal beta galactosidase overlay assay, Y2H) (% more than the original binder) in test [1] is > 100.
